The results in this text go back to the DeepSol protein solubility set.

The data set can be described thus: soluble on expression in E. coli; label from the status in PepcDB or PDB records.
As to “MSELSQLSPQPLWDIFAKICSIPHPSYHEEQLAEYIVGWAKEKGFHVERDQVGNILIRQPATAGMENRKPVVLQAHLDMVPQKNNDTVHDFTKDPIQPYIDGEWVKARGTTLGADNGIGMASALAVLADENVVHGPLEVLLTMTEEAGMDGAFGLQSNWLQADILINTDSEEEGEIYMGCAGGIDFTSNLHLDREAVPAGFETFKLTLKGLKGGHSGGEIHVGLGNANKLLVRFLAGHAEELDLRLIDFNGGTLRNAIPREAFATIAVAADKVDALKSLVNTYQEILKNELAEKEKNLALLLDSVANDKAALIAKSRDTFIRLLNATPNGVIRNSDVAKGVVETSLNVGVVTMTDNNVEIHCLIRSLIDSGKDYVVSMLDSLGKLAGAKTEAKGAYPGWQPDANSPVMHLVRETYQRLFNKTPNIQIIHAGLECGLFKKPYPEMDMVSIGPTITGPHSPDEQVHIESVGHYWTLLTELLKEIPAK”, the “soluble on expression in E. coli” value is recorded as “not soluble”.

For the sequence “MSEMNAVYNVKQYILNLIMQNKLEYGDQLPSNLSIARELNVKTDDVYEAIQALITEQVIKDNFEEGTSVKSLPPFFYPLNELISIGQMIKNAGFECGTEYLNFDEQPATMLDANLLSVEEGYPVTIIERLRTADGEPVVYCLDKIAKKELTCTEYQMSNGSILSAIKEQSNHNICYADTEIEAVNYEPRISEVLNASPHEGLILLKITHYNELDEPILYSLNYMKNSLVQFKITRKI”, the “soluble on expression in E. coli” value is “not soluble”.

For the sequence “MSEQDATLDEFVEEGESESTDSANIDPNTLDQEQFGPFTLSTPGEWTAKRLGDIKQLITRGKQPTYDDDGVPVINQECIYWDGWHFENLRYLEEDVAEGWKEKYFPESGDVIVNSTGQGTLGRAQVYPGDQRRAIDSHVTLLRTDEQLCPHFHRYFFESHLGQALLYSMCVNGSTGQIELSKTRLDLLPTPLPPLEEQRKIASVLYNVDQAIQKTEAVIEKIERLKQGLLDDLFTKGLSESNSLRPSPEDHPGLYKKERRQTIPSEWNVESLQNLCVENITYGIVQPGPHVEDGVPYINTEDMTDGDIPTEGLSRTSPEIAEKYSRSQIHAEELVVTIRATIGAVDQVPPELEGANLTRGTARVVPGDKVDNTFLLWAIRSNNFQSELDARVKGTTFDEINLDQLGKIPVPHPDIDEQDRIVDELSTIEERMENEESYLEQLKRLKQGLMQDLLSGEVRTTDVDIPVLDAVAQHG”, the “soluble on expression in E. coli” value was “soluble”.

As to “MSFIKTFSGKHFYYDKINKDDIVINDIAVSLSNICRFAGHLSHFYSVAQHAVLCSQLVPQEFAFEALMHDATEAYCQDIPAPLKRLLPDYKRMEEKIDAVIREKYGLPPVMSTPVKYADLIMLATERRDLGLDDGSFWPVLEGIPATEMFNVIPLAPGHAYGMFMERFNDLSELRKCA”, the “soluble on expression in E. coli” value is recorded as “soluble”.

In the case of “MSFNRISAAEAASLIKHGYNIGLSGFTPAGTAKAVTAELAKIAEAEHAKGNPFQVGIFTGASTGESCDGVMSRAKAIRYRAPYTTNSDFRKAVNNGEIAYNDIHLSQMAQEVRYGFMGKVNVAIIEACEVTPDGKIYLTAAGGISPTICRLADQIIVELNAAHSKSCMGLHDVYEPLDPPYRREIPIYKPSDRIGLPYIQVDPKKIVGVVETNWPDEARSFADADPLTDKIGQNVADFLAADMKRGIIPSTFLPLQSGVGNIANAVLGALGRDKTIPAFEMYTEVIQNSVIGLIREGRIKFGSACSLTVTNDCLEGIYNDMDFFRDKLVLRPSEISNNPEVVRRLGIISINTAIEVDLYGNVNSTHIGGTKMMNGIGGSGDFTRNAYISIFTCPSVAKEGKISAIVPMVSHLDHSEHSVNIIITEQGVADLRGKSPKERAQAIIENCAHPDYKQLLWDYLKLAGGRAQTPHAIQAALGMHAELAKSGDMKNTNWAEYARLEHHHHHH”, the “soluble on expression in E. coli” value is listed as “not soluble”.

For the sequence “MSFTEDQEKIALEILSKDKHEFYEILKVDRKATDSEIKKAYRKLAIKLHPDKNSHPKAGEAFKVINRAFEVLSNEEKRSIYDRIGRDPDDRQMPSRGAASGFRGSAGGSPMGGGFEDMFFNSRFGGQRAGPPEDIFDFLFNAGGSPFGASPFGPSASTFSFGGPGGFRVYTNNRGGSPFMRQQPRSRQQQQQAEENAVNSQLKN”, the “soluble on expression in E. coli” value was “not soluble”.

Regarding “MSGALKENSGKPSEVEYTHFKDLQALEMERGRLYETIVVTWDDSMVGNAAPIGVLCTGDDTVTLYLYQGTRTVENVLNNGRFTVNVTLDPLIFTDSTLGDLEEDMFSHYRDFLHLRGADAFFTAEVVSVKKLVKRDRFGESELHVVKARAGDVMRAESFRMALNRGIYAVIESLIAYTRAEFSDPLVLRERIAEMNRVARKVGGPREKEAMRRIIQALESKIS”, the “soluble on expression in E. coli” value is recorded as “not soluble”.

Consider “MSGDDDIPEGLEAINLKMNATTDDSLESTRRMLALCEESKEAGIKTLVMLDDQGEQLERCEGALDTINQDMKEAEDHLKGMEKCCGLCVLPWNKTDDFEKTEFAKAWKKDDDGGVISDQPRITVGDSSMGPQGGYITKITNDAREDEMDENVQQVSTMVGNLRNMAIDMSTEVSNQNRQLDRIHDKAQSNEVRVESANKRAKNLITK”, for which the “soluble on expression in E. coli” value is “not soluble”.

Take “MSGDGDSSTTSSAGDGSTSKDKIPAFSEIRVIEVNRDNFAKIWPYLLVCIKSADFTAIDLELSGLGGKGLRSRDIAERYQAIRDAAHTRSILSVGIATMKLTHKSEKRRALRYETQVFNILTFSEKPFTIEPSALQFLAKHSFDFNRLIQSGVRFQGANCPLKTLFRELLGSSATFCLHNGFIDLAFIYKQLYDIDLPDTLDGFVNNLSDMFPDNYLPVADSKYLAEYQTRMTASFLEYVFRRTQGDNEIERQNNRYHIEICFPSSEKSIKALKNATESVDVRLPEGFPDHAIPIDLHIHVCKYFAYHGFCHARNTEKGCKLLHDVDTAIDLQRIKENKKAFKRKRRYNNVIAESVAEKTGTDEEAWKNAKFEQNLLTRDFRELKRNVVTGLHRAGVDAFMTAFAVIYQQRRTLMADNSVDLKFLNRVPLSAKDKPLHLRHRPVPVPQSEQIDAHLEAMVEINKQRDYIRMNAAATVIKSVQKEDTPCED”: the “soluble on expression in E. coli” value is on record as “not soluble”.

“MSGIPSQGVASGMREAARALLAVLEPEQVRELRAGPDRLDTPELREWTYLPGPRPGLSTEGLDGRQREVVDALLTTAHSAAGAELVRGAIEVERHPRARAGHPGPDRYWVRLLGDPGGDEPWGWRLNGHHLAVHVLVTAAGVRVTPHFVGAEPARTGNGPRPGLRPLGPEEDLARELITSLGGTARASALFAATPPDDILTRADPFADPGLLPEGLRYDRLAPGQQRLLERLVGRYLDRAPEAYARECWSDAVRRGLGSLSFAWAGGLAPGDRHYYCVRAPDFLIEYDNTQDDGNHAHSVWRHVRHDWGTDLLRGHYTEQHFLEHHHHHH”: the “soluble on expression in E. coli” value is given as “not soluble”.

As to “MSGPAHLPYGGIPTFARAPLVQPDGDWQADVAALGVPFDIALGFRPGARFAPRALREASLRSVPPFTGLDGKTRLQGVTFADAGDVILPSLEPQLAHDRITEAARQVRGRCRVPVFLGGDHSVSYPLLRAFADVPDLHVVQLDAHLDFTDTRNDTKWSNSSPFRRACEALPNLVHITTVGLRGLRFDPEAVAAARARGHTIIPMDDVTADLAGVLAQLPRGQNVYFSVDVDGFDPAVIPGTSSPEPDGLTYAQGMKILAAAAANNTVVGLDLVELAPNLDPTGRSELLMARLVMETLCEVFDHVL”, the “soluble on expression in E. coli” value is recorded as “soluble”.

Take “MSGTASKGSSSDSASEKTEMRTYKSPKGNVNIPAHPKRIVTDFYAGELLSVGANVVGSGSWSFDNPFLKSKLKNVKDVGDPISVEKVMELQPDLIVVMNEENVDKLKKIAPTVVIPYNTAKNVEDTVSMFGDIAGAKDQAKSFMADFNKKAEAAKKKIAGVIDKDATFGIYENTDKGEFWVFNDNGGRGGQAVYNALGLKAPEKIEQDVIKKGEMKQLSQEVIPEYAADYMFITDYNPKGESKTLDKLENSSIWKNLDAVKHNRVFINDFDSFYPYDPISVSKQVDIITDMLIKRAEENLEHHHHHH”: the “soluble on expression in E. coli” value is recorded as “soluble”.

As for “MSGVWVFKNGVIRLVENPNQSGSDTQNRRKVMVYLPTGEVVSSYSTLEQILQSLGWERYFGGGDTDLLQFHKRSSIDLISLPRDFTKFNSVYMYDIVVKNPNYFHVRDSH”, the “soluble on expression in E. coli” value is listed as “not soluble”.

“MSHHPDLSVSLDQLLLRKEVRVRQQGEWLKRHSLPLVSFTVNMPGAVKLNAASQTVMDAGMRAIQELCQKTGWRQVACQLLVEKTGPEAFVVIQAPSASMLKKAMMKIEREHPLGRLMDLDVIDVDGHIISRQGAQLPRRRCLLCERDAVICARSRRHSVEALLAKIEEMTHDYSCCA”: the “soluble on expression in E. coli” value is listed as “soluble”.

Regarding “MSHQIRSKKTLWELVGRNKDALRDFLKEHRGTILLRDIASEHKVVYKPIFKRYNGDPDLIEDNSNDVEHWYDYHLERYWNTPELKKEFYKKFGPVDLNQPIILAKPLRQHNRGDLVHLLPQFVVPVYN”, the “soluble on expression in E. coli” value is on record as “soluble”.

“MSHSTYSLSFVASPSEEAQTALKELKAVYSDTPFEEADVIVALGGDGFMLQILNETMNSGKRVYGMNRGSVGFLMNDFRVEGLIQRIAVASGNDFHPLRMTTTDSDGDEFTALAMNEVSLFRQSHQAAKLRVEVDGKVRLEELICDGMMVATPAGSTAYNFSAHGPILPLESPLLALTPVSAFRPRRWRGALLPNKVTVDIHVLERDKRPVNAVADHTEVKSVRHVRIAQSQDRTAKILSDPDRSWSDRVLAEQFNNLEHHHHHH”: the “soluble on expression in E. coli” value is “not soluble”.

“MSHVDDGFRSLTLKRFPQTDDVNPLLAWEAADEYLLQQLDETEIRGPVLILNDTFGALSCALAEHSPYSIGDSYLSELGTRENLRHNGIAESSVTFLDSTADYPQAPGVVLIKVPKTLALLEQQLRALRKVVTAQTRIIAGAKARDIHTSTLELFEKVLGPTTTTLAWKKARLINCTFSHPQLADAPQTLSWKLEDTGWTIHNHANVFSRTGLDIGARFFMQHLPENLDGEIVDLGCGNGVIGLSLLAKNPQANVVFVDESPMAVDSSRLNVETNLPEAFERCEFMINNALSGVEPFRFNAVFCNPPFHQKHALTDNIAWEMFHHARRCLKINGELYIVANRHLDYFHKLKKIFGNCATIATNNKFVILKAVKQGRRR”: the “soluble on expression in E. coli” value is “not soluble”.

For the sequence “MSIEPTQVSREAELGAFLRTHRERLTPSDVGLPPGRRRRTPGLRREEVAQLSGLSATWITWLEQGRPVAMSVRALGSLAEALRLSRAERAYLFALAGKPEPRQDAEPAVPVALLASVQAISGPAYLLDRQWTARAWNAAAADLFVGWLDAASGERNLLRAMFLPTALQALVEDWPHRAARLVAEFRVHSLRHAEDPPTRALIERLMEDSPAFAAAWRSQDVDERQGGRRGFHHPMRGLVYFEQLTLVPPAAPGMMLVMLLPETP”, the “soluble on expression in E. coli” value was “soluble”.

In the case of “MSIIFNQRIEIIRAGEKRSVYSSDVMEDWDNPVVLPVEVPVSIQPVSSTESDATANRSYVTSRFRLFSPPGIDIPQLKAKDRVRIGLLVLDVVGDPARWPHPLKPATVHHVEADLEVHRG”, the “soluble on expression in E. coli” value is given as “not soluble”.

For “MSIIIENSGLFSSFQDFGRKGYEHEGVIPSGALDELAHEIANRLVANDKNEATLEMTQKMATIRFTEPALIALTGGNFKAETEHMKIYPNKLYLINEGETLKFNETSRTSRVYLAVGGGFKLEKWLHSASTDFNVEIGGFEGRKLKKGDEIELKHHYSQRHLKLFENLSDKRTTDWGIDGYALSFNYVSDVFHVIKNKGTEDFKKEATRRFTTAEYSVSSKTNRVGMVLDGPQIKAYYDDMPAHQSVKRGTIQVKRDGTPIVLLNDHYTLGSYPQIGTIASYHLTKLAQKPQGSKLKFQFIDIETAEKNLIKYSNWLNQLFHGIEHRMQLEMLKMAGDPLEHHHHHH”, the “soluble on expression in E. coli” value is “not soluble”.

Turning to “MSILDGFKEVGESNNGKLTMTVMLESVRFSKNVSAVLGFPKYVKVLVNNDEKKFAIQKCNDKDEYAIRFATKKPGEASAVTLRNVDLLVATQKFFSFPELDDPTKIAFYALDGEYYSDEQVIVFNVEGAKNGTVGKRGPKAGSHRKTSQAKLEHHHHHH”, the “soluble on expression in E. coli” value was “soluble”.
